The subject of series [1] is T1, Z-Arg-Arg-AMC.
T1 sequence: RR

The test system of series [2] is T2, Z-Pro-Lys-Lys-Glu-AMC (Peptide 1).
T2 sequence: PKKE

Series [3] deals with T3, pro-heparanase (H60), purified recombinant human 60 kDa latent heparanase.
T3 sequence: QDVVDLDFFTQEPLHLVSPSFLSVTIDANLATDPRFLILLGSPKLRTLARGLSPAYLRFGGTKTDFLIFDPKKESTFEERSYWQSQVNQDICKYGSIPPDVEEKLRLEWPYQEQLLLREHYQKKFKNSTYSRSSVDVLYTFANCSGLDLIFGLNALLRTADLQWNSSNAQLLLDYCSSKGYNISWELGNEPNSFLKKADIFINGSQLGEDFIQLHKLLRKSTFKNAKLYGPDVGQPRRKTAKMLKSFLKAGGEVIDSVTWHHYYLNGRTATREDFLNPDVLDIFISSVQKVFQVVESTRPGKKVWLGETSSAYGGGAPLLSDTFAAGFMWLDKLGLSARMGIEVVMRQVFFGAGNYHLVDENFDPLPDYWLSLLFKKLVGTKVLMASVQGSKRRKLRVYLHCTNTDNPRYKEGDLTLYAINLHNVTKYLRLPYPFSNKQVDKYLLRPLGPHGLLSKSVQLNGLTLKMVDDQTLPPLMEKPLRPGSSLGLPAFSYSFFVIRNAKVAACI

These results are taken from patent publication US20050042213.

As to Cathepsin B, the Activity (δfluorescence) (δfluorescence) in series [1] amounted to 53300; in series [2], 8930. Moreover, in series [3], the “heparanase activity after treatment (DMB assay)” value is “Cathepsin B did not activate the pro-heparanase”. Further, the “processing of pro-heparanase in vitro (Western blot)” value in series [3] is recorded as “Cathepsin B in the presence of heparin but not when the cathepsin B inhibitor CA074 was added, also processed the pro-heparanase”.
As to Cathepsin L, in series [2], the Activity (δfluorescence) (δfluorescence) was 0.
Consider Cathepsin D, for which, in series [3], the “heparanase activity after treatment (DMB assay)” value was “Cathepsin D treatment caused an increase in heparanase activity and pepstatin A inhibited this activation”; the “processing of pro-heparanase in vitro (Western blot)” value is “When heparin was included in the reaction mixture, heparanase was processed by cathepsin D and a 45 kDa polypeptide was detected”.
